{"source": "paper PMC7379096", "about": "(ACS Omega, 2020)", "origin": "cited, not measured here", "details": "stated in the method section, no reference given"}
{"substance": "Immunoglobulin G [IgG]", "values": [{"measurement": "pI", "value": "5.5–8.3"}]}
